In the assay the target is huTIM-3 Fc (R&D; cat.no. 2365-TM) (human) (UniProt Q8TDQ0). Kind of assay: Galectin-9 blocking ELISA: coated Galectin-9 (competitor), 0.1875 ug/ml huTIM-3 Fc with negative control antibody; signal is huTIM-3 Fc bound.

This is an account of results in patent publication US20230357407A1.

huTIM-3 Fc (R&D; cat.no. 2365-TM) (human), sequence (Q8TDQ0 22-200 limits assumed): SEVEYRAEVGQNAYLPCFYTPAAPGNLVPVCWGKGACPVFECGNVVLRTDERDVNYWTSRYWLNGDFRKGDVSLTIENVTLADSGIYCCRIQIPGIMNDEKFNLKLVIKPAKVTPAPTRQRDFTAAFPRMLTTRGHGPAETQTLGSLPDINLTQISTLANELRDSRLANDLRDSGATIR

negative control antibody (Ctrl mAb) displayed an OD of 1.15 OD450.
